# From patent publication US10105454B2, “Ultrashort peptides as exogenous second harmonic probes for bioimaging applications” (Agency for Science, Technology and Research, priority 2014, dated 2018)
# “And” between values parts separate entries of the source, which are not always exact repeats. Equal values may be shown once. No end group written: not given here.
# Tests used:
# [1] = Powder SHG efficiency (Kurtz and Perry powder technique, sucrose standard); assay type: physicochemical; settings: relative to sucrose; average ± standard deviation
# Excerpt: (§1) We acquired SHG images using a commercial laser scanning microscopic imaging system (Zeiss LSM 510 META, Jena, Germany) coupled to a mode-locked femtosecond Ti: sapphire laser (Mai-Tai broadband, Spectra-Physics), tunable from 710 nm to 990 nm. To achieve spectral analysis and detect the SHG signal, we used the META detector with 32-gated photon counting module.
# All these peptides are SHG-active. We used a powder technique developed by Kurtz and Perry to evaluate the SHG efficiency of these second-order nonlinear optical materials. Sucrose, having a relatively modest nonlinearity, was chosen as a standard to evaluate second harmonic generation efficiencies. […] The efficiency of LD6 and IK3 were even three times higher than that of sucrose. These may due to their molecular structures. LD6 is known to form hydrogel at much lower concentrations compared to LK6. The trimer IK3 has larger dipole moment compared to LK6. […] This agrees with the previous findings. In Table 1, all the tested amyloid-like peptides were SHG-active with some showing even higher SHG efficiency than collagen subtypes. This provides a broad spectrum of materials as second harmonic probes.
# HeLa cells [2] = test: MTS cytotoxicity test, HeLa cells; assay type: cell-based, human; settings: 48 h, 0.1 to 1000 μg/mL
# Experimental: (§2) In order to use LK6 for bioimaging applications, such as monitoring cells and in vivo imaging, we assessed the cytotoxicity of LK6 by the MTS test. The MTS test was applied to two human cell lines, HeLa and primary human dermal fibroblasts (HDF). The toxicity of LK6 was measured at 0.1, 1, 10, 100 and 1000 μg/mL. Cells were exposed to cell culture media containing LK6 solution for 48 h. […] Calcein AM can penetrate cell membrane and be converted to cell membrane impermeable green fluorescent calcein, while red fluorescent EthD-1 is excluded by the intact cell membrane of live cells.
# (§3) We cultured both HeLa and human dermal fibroblasts in DMEM supplemented with 10% fetal bovine serum and 1% penicillin/streptomycin (Life technologies, Singapore).
# (§4) In order to use LK6 for bioimaging applications, such as in vitro monitoring cells and in vivo imaging the whole animal, we assessed the cytotoxicity of LK6 by the MTS test and live/dead assay with two human cell lines, human epithelial carcinoma cells (HeLa) and primary human dermal fibroblasts (HDF).
# [3] = test system: primary human dermal fibroblasts (HDF); test: MTS cytotoxicity test, human dermal fibroblasts; assay type: cell-based; settings: 48 h, 0.1 to 1000 μg/mL
# Experimental: as §2, §3, §4
# HeLa cells [4] = test: Calcein AM/EthD-1 live/dead staining, HeLa cells; assay type: cell-based, human; settings: 48 h, 1 and 1000 μg/mL
# Experimental: (§5) (b) Cytotoxicity determined by Calcein AM/EthD-1 (live/dead, green/red) staining method after 48 h treated with 1 and 1000 μg/mL LK6 peptide solutions using non-treated cells as control.
# as §2, §4
# [5] = test system: primary human dermal fibroblasts (HDF); test: Calcein AM/EthD-1 live/dead staining, HDF cells; assay type: cell-based; settings: 48 h, 1 and 1000 μg/mL
# Experimental: as §5, §2, §4
# [6] = SHG imaging and spectral analysis of peptide particles; assay type: physicochemical
# Excerpt: as §1
# To test whether the amyloid-like peptides of the present invention are SHG-active, we first investigated a hexamer peptide, Ac-LIVAGK-NH2, (LK6) (SEQ ID NO: 27). Peptide particles deposited on a glass microscope slide were examined under an SHG imaging system. Instrument details can be found in our previous work. During the whole experiments, only the backscattered geometry was employed because it is the only suitable configuration for in vivo imaging. We chose collagen I as a control. For more than a decade it has been shown that SHG microscopy can visualize supramolecular assembly of collagen in tissues. […] The fine structures of collagen and peptide particles can be clearly seen under SHG and scanning electron microscopy (SEM, FIG. 1a insert, 1b and 1c).
# We further characterized LK6 peptide. […] When excited at 810 nm, LK6 emitted a sharp SHG peak at 405 nm (FIG. 2a). We then examined the excitation wavelength tunability of SHG signals from LK6 peptide. In FIG. 2b, as the excitation wavelength was increased from 810 to 890 nm, the wavelength of the SHG signals from the LK6 peptide particles increased from 405 to 445 nm respectively. Biological samples, such as cells and tissues, are known to have auto-fluorescence. With excitation wavelength tunability, we can better avoid auto-fluorescence. In addition, we can further increase penetration depth in tissues by simply increasing excitation wavelength. […] The band width (full width at half-maximum of Gaussian distribution, FWHM) was narrow (˜10 nm) and it obeys a relationship to the corresponding wavelength profile of the fundamental beam (˜15 nm). Moreover, we measured the dependence of the output signal on irradiation intensity by varying the 850 nm excitation intensity. […] (1)
# [7] = at 12 mM, ref [18]; cited from earlier work
# [8] = Hyper Rayleigh Scattering, ref [19]; cited from earlier work
Substance,Powder SHG efficiency I^2ω/I^2ω(sucrose) [1],Hydrogel formation [7],other results
"Ac-LIVAGK-NH2 [LK6, Ac-LIVAGK-NH2]",0.95 ± 0.19,self-assembled into hydrogels,Cell viability (MTS) (HeLa cells [2]): either equivalent to or even higher than that of untreated cells; Cell viability (MTS) [3]: either equivalent to or even higher than that of untreated cells; Cytotoxicity by live/dead staining (HeLa cells [4]): no toxicity; Cytotoxicity by live/dead staining [5]: no toxicity; SHG peak emission wavelength ([6]; excitation 810 nm): 405 nm; SHG band width (FWHM of Gaussian distribution) ([6]; excitation 850 nm): ~10 nm; SHG emission maximum (Gaussian fit) ([6]; excitation 850 nm): 425 nm; SHG signal wavelength ([6]; excitation 890 nm): 445 nm and 450 nm
DFNKF (listed as Homo sapiens) [DF5],0.89 ± 0.33,self-assembled into hydrogels,
GGG,,,First hyperpolarizability β [8]: about 0.087 ×10-30 esu
GGVVIA (listed as Homo sapiens) [GA6],1.52 ± 0.43,self-assembled into hydrogels,
"ILVAGS (Ac-ILVAGS) [IS6, designed synthetic hexamer, neutral, acetylated at the N terminus]",1.96 ± 0.58,self-assembled into hydrogels,
IVK [IK3],3.31 ± 0.57,self-assembled into hydrogels,
KLVFFAE (listed as Homo sapiens) [KE7],3.18 ± 0.67,self-assembled into hydrogels,
"LIVAGD (Ac-LIVAGD) [LD6, designed synthetic hexamer, negatively charged, acetylated at the N terminus]",3.06 ± 0.65,self-assembled into hydrogels,
NFGAIL (listed as Homo sapiens) [NL6],0.76 ± 0.21,self-assembled into hydrogels,
PPG,,,First hyperpolarizability β [8]: about 0.087 ×10-30 esu
"Type I: human collagen subtype I, control and endogenous SHG probe",1.23 ± 0.36,,First hyperpolarizability β [8]: 1250±20 ×10-30 esu
Type II: human collagen subtype II,0.41 ± 0.13,,
